Data from the supplement of paper PMC5998384.

Experiments:
[1] = system: HeLa Kyoto; assay: solubility in G1/S (NP-40 vs SDS abundance) (log2 ratio); higher = more soluble; conditions: cell cycle stage: G1/S
[2] = system: HeLa Kyoto; assay: melting temperature (median over replicates), in situ; higher = more thermally stable
[3] = system: HeLa Kyoto; assay: solubility change mitosis vs G1/S (difference of NP-40 vs SDS log2 ratios) (log2 ratio difference); higher = more soluble in mitosis
[4] = system: HeLa Kyoto; assay: thermal stability score vs G1/S (z-score of summed log2 fold changes over temperatures); higher = more thermally stable than in G1/S
[5] = cell cycle stage: early G1 (4.5 h after nocodazole release)
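Wherever melting temperature (median over replicates), in situ is given: HeLa Kyoto cells synchronized by double thymidine or nocodazole block, proteins quantified by TMT10plex mass spectrometry, three independent biological replicates.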
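Wherever solubility change mitosis vs G1/S (difference of NP-40 vs SDS log2 ratios) is given: synchronized HeLa Kyoto cells (double thymidine block for G1/S, nocodazole release for mitosis), protein amounts in NP-40 versus SDS lysates quantified by mass spectrometry, three biological replicates.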
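Wherever solubility in G1/S (NP-40 vs SDS abundance) is given: HeLa Kyoto cells arrested at G1/S by double thymidine block, proteins quantified by TMT10plex mass spectrometry in mild NP-40 versus SDS extracts, three biological replicates.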
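Wherever thermal stability score vs G1/S (z-score of summed log2 fold changes over temperatures) is given: synchronized HeLa Kyoto cells, proteins quantified by TMT10plex mass spectrometry, three biological replicates, mitosis taken 0.5 h after nocodazole release, G1/S directly after double thymidine block.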

Sequence | solubility in G1/S (log2) [1] | melting temperature ([2]; cell cycle stage: G1/S) | melting temperature ([2]; cell cycle stage: mitosis) | solubility change mitosis (log2) [3] | thermal stability score [4, 5] | thermal stability score ([4]; cell cycle stage: mitosis)
MSDIGDWFRSIPAITRYWFAATVAVPLVGKLGLISPAYLFLWPEAFLYRFQIWRPITATFYFPVGPGTGFLYLVNLYFLYQYSTRLETGAFDGRPADYLFMLLFNWICIVITGLAMDMQLLMIPLIMSVLYVWAQLNRDMIVSFWFGTRFKACYLPWVILGFNYIIGGSVINELIGNLVGHLYFFLMFRYPMDLGGRNFLSTPQFLYRWLPSRRGGVSGFGVPPASMRRAADQNGGGGRHNWGQGFRLGDQ [DERL1] | 0.00239 | 51.6 °C | 55.3 °C | -0.273 | -0.109 | -0.882
MSDKSELKAELERKKQRLAQIREEKKRKEEERKKKETDQKKEAVAPVQEESDLEKKRREAEALLQSMGLTPESPIVFSEYWVPPPMSPSSKSVSTPSEAGSQDSGDGAVGSRTLHWDTDPSVLQLHSDSDLGRGPIKLGMAKITQVDFPPREIVTYTKETQTPVMAQPKEDEEEDDDVVAPKPPIEPEEEKTLKKDEENDSKAPPHELTEEEKQQILHSEEFLSFFDHSTRIVERALSEQINIFFDYSGRDLEDKEGEIQAGAKLSLNRQFFDERWSKHRVVSCLDWSSQYPELLVASYNNNEDAPHEPDGVALVWNMKYKKTTPEYVFHCQSAVMSATFAKFHPNLVVGGTYSGQIVLWDNRSNKRTPVQRTPLSAAAHTHPVYCVNVVGTQNAHNLISISTDGKICSWSLDMLSHPQDSMELVHKQSKAVAVTSMSFPVGDVNNFVVGSEEGSVYTACRHGSKAGISEMFEGHQGPITGIHCHAAVGAVDFSHLFVTSSFDWTVKLWTTKNNKPLYSFEDNADYVYDVMWSPTHPALFACVDGMGRLDLWNLNNDTEVPTASISVEGNPALNRVRWTHSGREIAVGDSEGQIVIYDVGEQIAVPRNDEWARFGRTLAEINANRADAEEEAATRIPA [DYNC1I2] | -0.0277 | 53.2 °C | 52.3 °C | -0.0123 | -2.66 | -3.05
MSDLRITEAFLYMDYLCFRALCCKGPPPARPEYDLVCIGLTGSGKTSLLSKLCSESPDNVVSTTGFSIKAVPFQNAILNVKELGGADNIRKYWSRYYQGSQGVIFVLDSASSEDDLEAARNELHSALQHPQLCTLPFLILANHQDKPAARSVQEIKKYFELEPLARGKRWILQPCSLDDMDALKDSFSQLINLLEEKDHEAVRM [ARL15] | 0.118 | – | 53.2 °C | -0.114 | -0.792 | 0.438
MSDNPPRMEVCPYCKKPFKRLKSHLPYCKMIGPTIPTDQKVYQSKPATLPRAKKMKGPIKDLIKAKGKELETENEERNSKLVVDKPEQTVKTFPLPAVGLERAATTKADKDIKNPIQPSFKMLKNTKPMTTFQEETKAQFYASEKTSPKRELAKDLPKSGESRCNPSEAGASLLVGSIEPSLSNQDRKYSSTLPNDVQTTSGDLKLDKIDPQRQELLVKLLDVPTGDCHISPKNVSDGVKRVRTLLSNERDSKGRDHLSGVPTDVTVTETPEKNTESLILSLKMSSLGKIQVMEKQEKGLTLGVETCGSKGNAEKSMSATEKQERTVMSHGCENFNTRDSVTGKESQGERPHLSLFIPRETTYQFHSVSQSSSQSLASLATTFLQEKKAEAQNHHCVPDVKALMESPEGQLSLEPKSDSQFQASHTGCQSPLCSAQRHTPQSPFTNHAAAAGRKTLRSCMGLEWFPELYPGYLGLGVLPGKPQCWNAMTQKPQLISPQGERLSQVSLLERSSTHIRSLEPPAGLTTSNFSLMRLLGAVQKGWIRCNTTIRKSGFGGITMLFTGYFVLCCSWSFRRLKKLCRPLPWKSTVPPCIGVAKTTGDCRSKTCLD [C17ORF80] | 0.0361 | 54.5 °C | 54 °C | -0.00249 | -2.69 | -2.84
MSECGGRGGGSSSSEDAEDEGGGGGGPAGSDCLSSSPTLATASSAGRLRRGLRGAFLMARQRPELLCGAVALGCALLLALKFTCSRAKDVIIPAKPPVSFFSLRSPVLDLFQGQLDYAEYVRRDSEVVLLFFYAPWCGQSIAARAEIEQAASRLSDQVLFVAINCWWNQGKCRKQKHFFYFPVIYLYHRSFGPIEYKGPMSAVYIEKFVRRVMKPLLYIPSQSELLDFLSNYEPGVLGYFEFSGSPQPPGYLTFFTSALHSLKKALESTSSPRALVSFTGEWHLETKIYVLDYLGTVRFGVITNKHLAKLVSLVHSGSVYLHRHFNTSLVFPREVLNYTAENICKWALENQETLFRWLRPHGGKSLLLNNELKKGPALFLFIPFNPLAESHPLIDEITEVALEYNNCHGDQVVERLLQHLRRVDAPVLESLALEVPAQLPDPPTITASPCCNTVVLPQWHSFSRTHNVCELCVNQTSGGMKPSSVSVPQCSFFEMAAALDSFYLKEQTFYHVASDSIECSNFLTSYSPFSYYTACCRTISRGVSGFIDSEQGVFEAPTVAFSSLEKKCEVDAPSSVPHIEENRYLFPEVDMTSTNFTGLSCRTNKTLNIYLLDSNLFWLYAERLGAPSSTQVKEFAAIVDVKEESHYILDPKQALMKLTLESFIQNFSVLYSPLKRHLIGSGSAQFPSQHLITEVTTDTFWEVVLQKQDVLLLYYAPWCGFCPSLNHIFIQLARNLPMDTFTVARIDVSQNDLPWEFMVDRLPTVLFFPCNRKDLSVKYPEDVPITLPNLLRFILHHSDPASSPQNVANSPTKECLQSEAVLQRGHISHLEREIQKLRAEISSLQRAQVQVESQLSSARRDEHRLRQQQRALEEQHSLLHAHSEQLQALYEQKTRELQELARKLQELADASENLLTENTWLKILVATMERKLEGRDGAESLAAQREVHPKQPEPSATPQLPGSSPPPANVSATLVSERNKENRTD [TXNDC11] | -0.00943 | 53.5 °C | – | -0.134 | 0.926 | 2.27
MSEEIITPVYCTGVSAQVQKQRARELGLGRHENAIKYLGQDYEQLRVRCLQSGTLFRDEAFPPVPQSLGYKDLGPNSSKTYGIKWKRPTELLSNPQFIVDGATRTDICQGALGDCWLLAAIASLTLNDTLLHRVVPHGQSFQNGYAGIFHFQLWQFGEWVDVVVDDLLPIKDGKLVFVHSAEGNEFWSALLEKAYAKVNGSYEALSGGSTSEGFEDFTGGVTEWYELRKAPSDLYQIILKALERGSLLGCSIDISSVLDMEAITFKKLVKGHAYSVTGAKQVNYRGQVVSLIRMRNPWGEVEWTGAWSDSSSEWNNVDPYERDQLRVKMEDGEFWMSFRDFMREFTRLEICNLTPDALKSRTIRKWNTTLYEGTWRRGSTAGGCRNYPATFWVNPQFKIRLDETDDPDDYGDRESGCSFVLALMQKHRRRERRFGRDMETIGFAVYEVPPELVGQPAVHLKRDFFLANASRARSEQFINLREVSTRFRLPPGEYVVVPSTFEPNKEGDFVLRFFSEKSAGTVELDDQIQANLPDEQVLSEEEIDENFKALFRQLAGEDMEISVKELRTILNRIISKHKDLRTKGFSLESCRSMVNLMDRDGNGKLGLVEFNILWNRIRNYLSIFRKFDLDKSGSMSAYEMRMAIESAGFKLNKKLYELIITRYSEPDLAVDFDNFVCCLVRLETMFRFFKTLDTDLDGVVTFDLFKWLQLTMFA [CAPN1] | -0.203 | 55.9 °C | 56.5 °C | -0.164 | -0.914 | -1.67
MSEGNAAGEPSTPGGPRPLLTGARGLIGRRPAPPLTPGRLPSIRSRDLTLGGVKKKTFTPNIISRKIKEEPKEEVTVKKEKRERDRDRQREGHGRGRGRPEVIQSHSIFEQGPAEMMKKKGNWDKTVDVSDMGPSHIINIKKEKRETDEETKQILRMLEKDDFLDDPGLRNDTRNMPVQLPLAHSGWLFKEENDEPDVKPWLAGPKEEDMEVDIPAVKVKEEPRDEEEEAKMKAPPKAARKTPGLPKDVSVAELLRELSLTKEEELLFLQLPDTLPGQPPTQDIKPIKTEVQGEDGQVVLIKQEKDREAKLAENACTLADLTEGQVGKLLIRKSGRVQLLLGKVTLDVTMGTACSFLQELVSVGLGDSRTGEMTVLGHVKHKLVCSPDFESLLDHKHR [POLR3D] | 0.144 | – | 48.8 °C | -0.118 | -0.688 | -1.1
MSELTKELMELVWGTKSSPGLSDTIFCRWTQGFVFSESEGSALEQFEGGPCAVIAPVQAFLLKKLLFSSEKSSWRDCSEEEQKELLCHTLCDILESACCDHSGSYCLVSWLRGKTTEETASISGSPAESSCQVEHSSALAVEELGFERFHALIQKRSFRSLPELKDAVLDQYSMWGNKFGVLLFLYSVLLTKGIENIKNEIEDASEPLIDPVYGHGSQSLINLLLTGHAVSNVWDGDRECSGMKLLGIHEQAAVGFLTLMEALRYCKVGSYLKSPKFPIWIVGSETHLTVFFAKDMALVAPEAPSEQARRVFQTYDPEDNGFIPDSLLEDVMKALDLVSDPEYINLMKNKLDPEGLGIILLGPFLQEFFPDQGSSGPESFTVYHYNGLKQSNYNEKVMYVEGTAVVMGFEDPMLQTDDTPIKRCLQTKWPYIELLWTTDRSPSLN [FAM188A] | 0.00352 | – | 52.9 °C | -0.147 | -0.555 | -1.31
MSEQSICQARAAVMVYDDANKKWVPAGGSTGFSRVHIYHHTGNNTFRVVGRKIQDHQVVINCAIPKGLKYNQATQTFHQWRDARQVYGLNFGSKEDANVFASAMMHALEVLNSQETGPTLPRQNSQLPAQVQNGPSQEELEIQRRQLQEQQRQKELERERLERERMERERLERERLERERLERERLEQEQLERERQERERQERLERQERLERQERLERQERLDRERQERQERERLERLERERQERERQEQLEREQLEWERERRISSAAAPASVETPLNSVLGDSSASEPGLQAASQPAETPSQQGIVLGPLAPPPPPPLPPGPAQASVALPPPPGPPPPPPLPSTGPPPPPPPPPLPNQVPPPPPPPPAPPLPASGFFLASMSEDNRPLTGLAAAIAGAKLRKVSRMEDTSFPSGGNAIGVNSASSKTDTGRGNGPLPLGGSGLMEEMSALLARRRRIAEKGSTIETEQKEDKGEDSEPVTSKASSTSTPEPTRKPWERTNTMNGSKSPVISRRDSPRKNQIVFDNRSYDSLHRPKSTPLSQPSANGVQTEGLDYDRLKQDILDEMRKELTKLKEELIDAIRQELSKSNTA [ENAH] | 0.13 | 51.7 °C | 51.9 °C | 0.0923 | 2.28 | 8.8
MSEREERRFVEIPRESVRLMAESTGLELSDEVAALLAEDVCYRLREATQNSSQFMKHTKRRKLTVEDFNRALRWSSVEAVCGYGSQEALPMRPAREGELYFPEDREVNLVELALATNIPKGCAETAVRVHVSYLDGKGNLAPQGSVPSAVSSLTDDLLKYYHQVTRAVLGDDPQLMKVALQDLQTNSKIGALLPYFVYVVSGVKSVSHDLEQLHRLLQVARSLFRNPHLCLGPYVRCLVGSVLYCVLEPLAASINPLNDHWTLRDGAALLLSHIFWTHGDLVSGLYQHILLSLQKILADPVRPLCCHYGAVVGLHALGWKAVERVLYPHLSTYWTNLQAVLDDYSVSNAQVKADGHKVYGAILVAVERLLKMKAQAAEPNRGGPGGRGCRRLDDLPWDSLLFQESSSGGGAEPSFGSGLPLPPGGAGPEDPSLSVTLADIYRELYAFFGDSLATRFGTGQPAPTAPRPPGDKKEPAAAPDSVRKMPQLTASAIVSPHGDESPRGSGGGGPASASGPAASESRPLPRVHRARGAPRQQGPGTGTRDVFQKSRFAPRGAPHFRFIIAGRQAGRRCRGRLFQTAFPAPYGPSPASRYVQKLPMIGRTSRPARRWALSDYSLYLPL [TAF6L] | 0.0555 | 49.3 °C | 49.5 °C | -0.115 | 0.603 | 1.02
MSESFDCAKCNESLYGRKYIQTDSGPYCVPCYDNTFANTCAECQQLIGHDSRELFYEDRHFHEGCFRCCRCQRSLADEPFTCQDSELLCNDCYCSAFSSQCSACGETVMPGSRKLEYGGQTWHEHCFLCSGCEQPLGSRSFVPDKGAHYCVPCYENKFAPRCARCSKTLTQGGVTYRDQPWHRECLVCTGCQTPLAGQQFTSRDEDPYCVACFGELFAPKCSSCKRPIVGLGGGKYVSFEDRHWHHNCFSCARCSTSLVGQGFVPDGDQVLCQGCSQAGP [FHL3] | -0.281 | 57.7 °C | 56.8 °C | -0.184 | 0.504 | -1.78
